Experimental data reported in the supplement of paper PMC10567573.
± gives the standard deviation.

Assay: protein stability index of a GFP-peptide fusion (GPS, HEK-293T) (PSI 1-6); higher = more stable
Settings: c terminus: a fixed tail appended
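Also: 24-mer peptide tiles fused after GFP, lentivirally expressed, FACS-sorted into six equal bins by GFP/DsRed ratio, decoded by Illumina sequencing, PSI is the read-weighted mean bin number.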

Sequence	protein stability index (treatment: DMSO)	protein stability index (treatment: MLN4924 1 uM, 8 h)
HSSSRDSHLSNGLDPVAETAIRQL [C2CD2L]	4.42 ± 0.35	4.53 ± 0.18
HVGELIIWDALDWTMQAYERNFWD [WDR41]	2.33 ± 0.26	2.25 ± 0.26
HWDLAELLPNQSHGNQSAGEDQAF [SLC22A15]	4.85 ± 0.28	4.8 ± 0.28
HYCNSSTDRRVLLMFLDICSELNK [SPACA9]	2.18 ± 0.35	2.21 ± 0.29
HYDRNKDGNKDVYLSLLRMYLSPP [VPS39]	2.29 ± 0.14	2.16 ± 0.18
HYIAGAHGNEVLGRELLLLLVQFV [CPXM2]	2 ± 0.075	2.22 ± 0.37
IAHDFPGIGHKVDAVFMKDGFFYF [MMP1]	2.41 ± 0.69	2.27 ± 0.16
IAKELSKTYQETPEIDMFLNVATF [ZBED1]	2.07 ± 0.24	2.12 ± 0.16
ICPSTFACAQLATGAACRLVEAVL [HDAC6]	2.17 ± 0.32	2.14 ± 0.049
IDLSHVTSKCGSLKNIRHRPGGGR [MAP2]	3.18 ± 0.15	3.35 ± 0.3
IDVSNPQTVGVGRGRFTTYEIRVK [SNX3]	2.56 ± 0.25	2.69 ± 0.35
IEPLVPEEKMETKTESSGIETEPT [EPB41L3]	5.45 ± 0.31	5.46 ± 0.51
IGNPPVGPIGGMMPPQPGIPQQQG [ZNF207]	4.62 ± 0.28	4.53 ± 0.21
IIKTEKVDLELFPSPDMECADVPL [ETS1]	3.99 ± 0.19	3.97 ± 0.22
IITVTLNMEKYNFLGISIVGQSNE [DVL3]	3.15 ± 0.69	3.04 ± 0.4
IKEVVEKREACHCEEVKMTVASEA [FAN1]	4.89 ± 0.25	4.95 ± 0.17
IKSVKESLQESVEDSLATVKVVLI [IQUB]	2.27 ± 0.66	2.44 ± 0.32
ILAVSFAPLIQPCHSESGKSRLVQ [PCMTD2]	2.23 ± 0.59	1.93 ± 0.25
ILDDGTISAHKPLLISSCDWMAAM [RHOBTB2]	2.29 ± 0.24	2.12 ± 0.19
ILDLSCNKLTTLPSDFCGLTHLVK [LRRC59]	2.02 ± 0.38	2.09 ± 0.022
ILELLVLEQFLAILPKELQAWVQK [ZNF396]	2.67 ± 0.24	2.65 ± 0.5
ILGPAYFVTYVFFVFFVLLNMFLA [PKD2L1]	2.88 ± 0.45	3.22 ± 0.3

Sequence	protein stability index (treatment: DMSO)	protein stability index (treatment: MLN4924 1 uM, 8 h)
ILGPVVGGYLTELEDGFYLTAFIC [MFSD9]	2.99 ± 0.34	3.05 ± 0.88
ILLSWTPPRSDTIANYELVYKDGE [PTPRD]	2.03 ± 0.41	2.23 ± 0.42
ILNLTQALKDNKSPLHLVQMPPVI [PI4K2A]	2.54 ± 0.27	2.35 ± 0.23
ILPKELQTWVRDHHPENGEEAVTV [ZNF24]	3.92 ± 0.17	4.17 ± 0.25
ILSFTVIMVGFILYCSTPTRTAEP [SLC35F2]	3.27 ± 0.65	2.77 ± 0.53
IMATLGFGDSPKAEKRQIGDQEGP [FBF1]	4.37 ± 0.17	4.3 ± 0.12
IPGFKFDNSLINQIENLNIQVEDI [LOXL2]	3.51 ± 0.18	3.37 ± 0.38
IPKLTPGDNPYMYPEQSKGFHKAG [SPATS1]	3.97 ± 0.28	3.84 ± 0.25
IQFWNSRQSLEGLSVRSVFFGVFQ [CLPTM1]	2.65 ± 0.46	2.79 ± 0.91
IQPDDLINQLTFIMDANQTYLVSE [FAF2]	2.32 ± 0.27	2.37 ± 0.31
IQVSLYCQEWYARRHCPLPQATFW [SOAT2]	2.87 ± 0.38	3.07 ± 0.83
IREALHELLCCTNVSTKEGIHLAL [INTS4]	2.41 ± 0.46	2.48 ± 0.3
IRIIDRALKEDFGFKHRLWVYSGR [PRIM1]	2.18 ± 0.51	2.27 ± 0.51
IRVVGRGAFGIVHLCLRKADQKLV [NEK8]	3.02 ± 0.59	2.74 ± 0.81
ISFTLYLIGFCMFVLSLVKKHYRL [CDS2]	2.29 ± 0.48	2.44 ± 0.53
ISPETMVALLTGKFSNIVDKFVIV [CDC25B]	2.29 ± 0.51	2.38 ± 0.73
ITRPSPRRSNSPDKFKRPTPPPSP [CCDC6]	5.18 ± 0.13	5.44 ± 0.081
IVLLEELLPKGSKEEQRDYVFYLA [FIS1]	2.33 ± 0.34	2.16 ± 0.44
IVVGRLKVALEPQLWELGKVLRKA [LPCAT4]	2.31 ± 0.37	2.61 ± 0.49
IWTAHYDPGHCFAESRELPVRCAG [ALG2]	2.38 ± 0.32	2.4 ± 0.24
IYRRYRQFHALQSKLEERFGPDSK [NCF4]	2.28 ± 0.23	2.61 ± 0.34
KAQLLARVNKEHEHKLKVVRDQIS [TRIM9]	3.34 ± 0.27	3.42 ± 0.075

Sequence	protein stability index (treatment: DMSO)	protein stability index (treatment: MLN4924 1 uM, 8 h)
KAVSEMRQKIWNNMPKDHPVSCCL [DYNC2LI1]	2.41 ± 0.21	2.46 ± 0.29
KDEEGRLRDPATITTLRVPVLRPM [PPP2R2B]	3.78 ± 0.23	4.04 ± 0.26
KDESCYDNAEAAFSDDEEDLNSKG [INTS3]	5.6 ± 0.39	5.5 ± 0.18
KDNEFTSKPWHWPINYQGLRFSGV [POMT2]	2.23 ± 0.23	2.42 ± 0.22
KECGKVFSQSAGLIQHQRIHKGEK [ZSCAN9]	4.42 ± 0.16	4.48 ± 0.3
KEEAGAPGGGAGMAAGFPYALRAY [CEBPB]	3.06 ± 0.13	3.31 ± 0.15
KELVEFAQDDDRLREERKKAKKNK [CLINT1]	5.49 ± 0.096	5.53 ± 0.17
KFHHSDCLSTWLLHFIATNYLIFS [RHOBTB3]	3.21 ± 0.23	3.05 ± 0.24
KFLIWDTAGQERFRALAPMYYRGS [RAB22A]	2.39 ± 0.23	2.55 ± 0.33
KGISQTNLITTVTPEKKAEEERDE [EPB41L3]	5.54 ± 0.13	5.59 ± 0.2
KHGIEYQSKPLLSAFADIIHSLKE [FADS1]	2.51 ± 0.44	2.81 ± 0.49
KHSVLLSASRKSAEQLRIELNAEK [WEE1]	3.92 ± 0.32	4.16 ± 0.21
KIEDFREEMWTFRGKIHAFRGQIL [CCDC70]	2.41 ± 0.24	2.09 ± 0.31
KIKEKYIDQEELNKTKPIWTRNPD [HSP90AB1]	3.71 ± 0.26	3.96 ± 0.24
KILHTAWHPAENIIAIAATNNLYI [PPP2R2C]	2.81 ± 0.54	2.93 ± 0.53
KIMEAESQKATRECEKSALTPGFS [FAN1]	4.86 ± 0.29	4.84 ± 0.14
KIWPEIKVPRPDALDNESWGFVHP [RETREG3]	2.68 ± 0.48	2.57 ± 0.54
KKEELLFDDGDDIMATLGFGDSPK [FBF1]	4.54 ± 0.2	4.59 ± 0.27
KKKGMYRKAITEAANAARHVAPEI [PWWP2B]	4.33 ± 0.045	4.5 ± 0.28
KKKKDKEKEKEKHKVKAEEEKKAK [BRD3]	5.2 ± 0.3	5.66 ± 0.13
KKQPWWRKLFGQESGPSAEKYSVA [FUNDC2]	3.1 ± 0.16	3.32 ± 0.35
